The numbers were not newly measured in paper PMC7249735, which cites them from elsewhere.

The subject of the data set is RGNNV coat protein (RGNNV-CP), MBP fusion (red-spotted grouper nervous necrosis virus (RGNNV)). The settings on record: PBS (137 mM NaCl, 2.7 mM KCl, 10 mM Na2HPO4, 1.8 mM KH2PO4, pH 7.4); ELASA 30 min at 4 C after 3% BSA block; sandwich capture in PBS, temperature not stated.

pKd: −log10 of the molar value.

As for “TGTGTGTCTATTGTCTGTGGTTCATGTCAAGCTTATTTTCCACACACGGT [A10]”, the negative-log Kd (pKd) (commonly −log10 of the Kd, conventionally taken in molar units) was 8.40.
